Source: patent publication US20240059797A1 (GRITSTONE BIO, published 2024)

Target: HLA-A*01:01_… (HLA-PEPTIDE target G10), recombinant biotinylated complex (human, enzymatically biotinylated (BirA))
Assay: scFv PPE ELISA

fold selective binding to target pHLA over minipool of negative control pHLAs [fold] | Binder
≥ 3 | G10(4A02) scFv (scFv, V domains shown) VH: QVQLVQSGAEVKKPGASVKVSCKASGYTLSYYYMHWVRQAPGQGLEWMGMIGPSDGSTSYAQRFQGRVTMTRDTSTGTVYMELSSLRSEDTAVYYCARDTGDHFDYWGQGTLVTVSS VL: not shown
≥ 3 | G10(2C04) scFv (scFv, V domains shown) VH: QVQLVQSGAEVKKPGASVKVSCKASGGTFSNSIINWVRQAPGQGLEWMGWMNPNSGNTNYAQKFQGRVTMTRDTSTSTVYMELSSLRSEDTAVYYCAREQWPSYWYFDLWGRGTLVTVSS VL: not shown
≥ 3 | G10(2G11) scFv (scFv, V domains shown) VH: QVQLVQSGAEVKKPGASVKVSCKASGGTFSTHDINWVRQAPGQGLEWMGVINPSGGSAIYAQKFQGRVTMTRDTSTSTVYMELSSLRSEDTAVYYCARDRGYSYGYFDYWGQGTLVTVSS VL: DIQMTQSPSSLSASVGDRVTITCRASQDISRYLAWYQQKPGKAPKLLIYDASNLETGVPSRFSGSGSGTDFTLTISSLQPEDFATYYCQQANSFPRTFGQGTKVEIK
≥ 3 | G10(1F06) scFv (scFv, V domains shown) VH: QVQLVQSGAEVKKPGASVKVSCKASGYTFIGYYMHWVRQAPGQGLEWMGMIGPSDGSTSYAQKFQGRVTMTRDTSTSTVYMELSSLRSEDTAVYYCARDSSGLDPWGQGTLVTVSS VL: DIQMTQSPSSLSASVGDRVTITCRASQSISNYLNWYQQKPGKAPKLLIYKASSLESGVPSRFSGSGSGTDFTLTISSLQPEDFATYYCQQSYIIPYTFGQGTKLEIK
≥ 3 | G10(1H08) scFv (scFv, V domains shown) VH: QVQLVQSGAEVKKPGASVKVSCKASGVTFSTSAISWVRQAPGQGLEWMGWISPYNGNTDYAQMLQGRVTMTRDTSTSTVYMELSSLRSEDTAVYYCARDAHQYYDFWSGYYSGTYYYGMDVWGQGTTVTVSS VL: DIQMTQSPSSLSASVGDRVTITCRASQGISNYLAWYQQKPGKAPKLLIYSASNLQSGVPSRFSGSGSGTDFTLTISSLQPEDFATYYCQQAYSFPWTFGQGTKVEIK
≥ 3 | G10(3E04) scFv (scFv, V domains shown) VH: QVQLVQSGAEVKKPGASVKVSCKASGNTFIGYYVHWVRQAPGQGLEWVGIINPNGGSISYAQKFQGRVTMTRDTSTSTVYMELSSLRSEDTAVYYCARGSGDPNYYYYYGLDVWGQGTTVTVSS VL: DIQMTQSPSSLSASVGDRVTITCQASQDISNYLNWYQQKPGKAPKLLIYAASNLQSGVPSRFSGSGSGTDFTLTISSLQPEDFATYYCQQANSLPYTFGQGTKVEIK
≥ 3 | G10(1A07) scFv (scFv, V domains shown) VH: EVQLLESGGGLVKPGGSLRLSCAASGFTFSSYWMSWVRQAPGKGLEWVSGISARSGRTYYADSVKGRFTISRDDSKNTLYLQMNSLKTEDTAVYYCARDQDTIFGVVITWFDPWGQGTLVTVSS VL: DIQMTQSPSSLSASVGDRVTITCRASQGISNYLAWYQQKPGKAPKLLIYAASSLQGGVPSRFSGSGSGTDFTLTISSLQPEDFATYYCQQYFTTPYTFGQGTKLEIK
≥ 3 | G10(1B07) scFv (scFv, V domains shown) VH: QVQLVQSGAEVKKPGASVKVSCKASGYTFTSYYMHWVRQAPGQGLEWMGIIHPGGGTTSYAQKFQGRVTMTRDTSTSTVYMELSSLRSEDTAVYYCARDKVYGDGFDPWGQGTLVTVSS VL: DIQMTQSPSSLSASVGDRVTITCRASQSISRWLAWYQQKPGKAPKLLIFDASRLQSGVPSRFSGSGSGTDFTLTISSLQPEDFATYYCQQAEAFPYTFGQGTKVEIK
≥ 3 | G10(1H01) scFv (scFv, V domains shown) VH: QVQLVQSGAEVKKPGASVKVSCKASGYTFTGYYMHWVRQAPGQGLEWMGMIGPSDGSTSYAQKFQGRVTMTRDTSTSTVYMELSSLRSEDTAVYYCARGVGNLDYWGQGTLVTVSS VL: DIQMTQSPSSLSASVGDRVTITCRASQSISNYLNWYQQKPGKAPKLLIYAASSLQSGVPSRFSGSGSGTDFTLTISSLQPEDFATYYCHQTYSTPLTFGQGTKVEIK
≥ 3 | G10(1E12) scFv (scFv, V domains shown) VH: QVQLVQSGAEVKKPGASVKVSCKASGYIFTGYYMHWVRQAPGQGLEWMGMIGPSDGSTSYAQKFQGRVTMTRDTSTSTVYMELSSLRSEDTAVYYCAREDDSMDVWGKGTTVTVSS VL: not shown
≥ 3 | G10(4C05) scFv (scFv, V domains shown) VH: QVQLVQSGAEVKKPGASVKVSCKASGYTFTGYYMHWVRQAPGQGLEWMGIIGPSDGSTTYAQKFQGRVTMTRDTSTSTVYMELSSLRSEDTAVYYCARAENGMDVWGQGTTVTVSS VL: DIQMTQSPSSLSASVGDRVTITCRASQRISSYLNWYQQKPGKAPKLLIYSASTLQSGVPSRFSGSGSGTDFTLTISSLQPEDFATYYCQQSYSTPFTFGPGTKVDIK
≥ 3 | G10(4E12) scFv (scFv, V domains shown) VH: QVQLVQSGAEVKKPGASVKVSCKASGYTFTGYYMHWVRQAPGQGLEWMGMIGPSDGSTSYAQRFQGRVTMTRDTSTSTVYMELSSLRSEDTAVYYCAREEDGMDVWGQGTTVTVSS VL: DIQMTQSPSSLSASVGDRVTITCRASQGISTYLAWYQQKPGKAPKLLIYDASSLQSGVPSRFSGSGSGTDFTLTISSLQPEDFATYYCQQYYSYPWTFGQGTRLEIK

Target: HLA-A*02:01_… (HLA-PEPTIDE target G8), recombinant complex (human, enzymatically biotinylated (BirA) for screening and functional assays)
Assay: scFv PPE ELISA

fold selective binding to target pHLA over minipool of negative control pHLAs [fold] | Binder
≥ 3 | G8(5G08) scFv (scFv, V domains shown) VH: QVQLVQSGAEVKKPGASVKVSCKASGYTFTSNYMHWVRQAPGQGLEWMGWMNPNSGNTGYAQKFQGRVTMTRDTSTSTVYMELSSLRSEDTAVYYCARGLYGDYFLYYGMDVWGQGTTVTVSS VL: not shown
≥ 3 | G8(5F02) scFv (scFv, V domains shown) VH: QVQLVQSGAEVKKPGASVKVSCKASGYTFTGYYIHWVRQAPGQGLEWMGVINPSGGSTTYAQKLQGRVTMTRDTSTSTVYMELSSLRSEDTAVYYCARDRDSSWTYYYYGMDVWGQGTTVTVSS VL: EIVMTQSPATLSVSPGERATLSCRASQSVGNSLAWYQQKPGQAPRLLIYGASTRATGIPARFSGSGSGTEFTLTISSLQSEDFAVYYCQQYGSSPYTFGQGTKVEIK
≥ 3 | G8(2C11) scFv (scFv, V domains shown) VH: QVQLVQSGAEVKKPGASVKVSCKASGYTFTSYAMNWVRQAPGQGLEWMGWINPNSGGTNYAQKFQGRVTMTRDTSTSTVYMELSSLRSEDTAVYYCARDPFWSGHYYYYGMDVWGQGTTVTVSS VL: not shown
≥ 3 | G8(2E04) scFv (scFv, V domains shown) VH: QVQLVQSGAEVKKPGSSVKVSCKASGGTFSSYGVSWVRQAPGQGLEWMGWISPYSGNTDYAQKFQGRVTITADESTSTAYMELSSLRSEDTAVYYCARGLYYMDVWGKGTTVTVSS VL: DIQMTQSPSSLSASVGDRVTITCRASQSISSWLAWYQQKPGKAPKLLIYDASNLETGVPSRFSGSGSGTDFTLTISSLQPEDFATYYCQQSYSTPLTFGGGTKLEIK
≥ 3 | G8(1C01) scFv (scFv, V domains shown) VH: QVQLVQSGAEVKKPGASVKVSCKASGGTFSSHAISWVRQAPGQGLEWMGVIIPSGGTSYTQKFQGRVTMTRDTSTSTVYMELSSLRSEDTAVYYCARGDYYDSSGYYFPVYFDYWGQGTLVTVSS VL: DIQMTQSPSSLSASVGDRVTITCRASQNIYTYLNWYQQKPGKAPKLLIYDASNLETGVPSRFSGSGSGTDFTLTISSLQPEDFATYYCQQANGFPLTFGGGTKVEIK
≥ 3 | G8(4F05) scFv (scFv, V domains shown) VH: QVQLVQSGAEVKKPGASVKVSCKASGYTFSNMYLHWVRQAPGQGLEWMGWINPNTGDTNYAQTFQGRVTMTRDTSTSTVYMELSSLRSEDTAVYYCARGLYGDYFLYYGMDVWGQGTKVTVSS VL: DIQMTQSPSSLSASVGDRVTITCRASQGISNYLAWYQQKPGKAPKLLIYAASTLQSGVPSRFSGSGSGTDFTLTISSLQPEDFATYYCQQSYSTPLTFGGGTKVEIK
≥ 3 | G8(2B05) scFv (scFv, V domains shown) VH: EVQLLESGGGLVQPGGSLRLSCAASGFDFSIYSMNWVRQAPGKGLEWVSAISGSGGSTYYADSVKGRFTISRDNSKNTLYLQMNSLRAEDTAVYYCASNGNYYGSGSYYNYWGQGTLVTVSS VL: DIQMTQSPSSLSASVGDRVTITCRASQSISRWLAWYQQKPGKAPKLLIYAASSLQSGVPSRFSGSGSGTDFTLTISSLQPEDFATYYCQQYSTYPITIGQGTKVEIK
≥ 3 | G8(2E06) scFv (scFv, V domains shown) VH: QVQLVQSGAEVKKPGASVKVSCKASGYTLTTYYMHWVRQAPGQGLEWMGWINPNSGGTNYAQKFQGRVTMTRDTSTSTVYMELSSLRSEDTAVYYCARAVYYDFWSGPFDYWGQGTLVTVSS VL: DIQMTQSPSSLSASVGDRVTITCRASQGISNSLAWYQQKPGKAPKLLIYAASSLQSGVPSRFSGSGSGTDFTLTISSLQPEDFATYYCQQANSFPWTFGQGTKLEIK
≥ 3 | G8(2C10) scFv (scFv, V domains shown) VH: QVQLVQSGAEVKKPGASVKVSCKASGYTFTSYYMHWVRQAPGQGLEWMGWINPYSGGTNYAQKFQGRVTMTRDTSTSTVYMELSSLRSEDTAVYYCAKGGIYYGSGSYPSWGQGTLVTVSS VL: DIQMTQSPSSLSASVGDRVTITCRASQDVSTWLAWYQQKPGKAPKLLIYAASSLQSGVPSRFSGSGSGTDFTLTISSLQPEDFATYYCQQSHSTPQTFGQGTKVEIK
≥ 3 | G8(5C03) scFv (scFv, V domains shown) VH: QVQLVQSGAEVKKPGASVKVSCKASGYTFTSYYMHWVRQAPGQGLEWMGWMNPNSGNTGYAQKFQGRVTMTRDTSTSTVYMELSSLRSEDTAVYYCARGLLGFGEFLTYGMDVWGQGTLVTVSS VL: DIQMTQSPSSLSASVGDRVTITCRASQGISNWLAWYQQKPGKAPKLLIYAASTLQSGVPSRFSGSGSGTDFTLTISSLQPEDFATYYCQQTYSTPWTFGQGTKLEIK
